These results are taken from patent US11267871B2, “Topical application for an anti-HSV antibody” (priority 2014, dated 2022).

For assay [1], the system named is recurrent herpes labialis. Particulars: 5 times per day for 4 days, cited from earlier work.
The next assay concerns HSV-2 G. The assay can be described thus: Topical treatment of acute genital HSV-2 infection in immunodeficient mice (survival, clinical score). Particulars: for mice with acute genital HSV-2 infection / local genital symptoms resolved at 48 h (number) / mice with acute genital HSV-2 infection / local genital symptoms resolved at 48 h (percent): 48 h after start of topical treatment, ACV 1 mg twice per day ongoing; for mice with acute genital HSV-2 infection / local genital symptoms resolved at 48 h (number) / mice with acute genital HSV-2 infection / local genital symptoms resolved at 48 h (percent) / mice in which HSV-2 lethal encephalitis was prevented: hu2c single 200 μg; for mice in which HSV-2 lethal encephalitis was prevented: topical, ACV 1 mg twice per day for 4 days. The assay is classed as in vivo, mice (NOD.CB17-Prkdc^scid/NCrHsd). As for the experimental part: FIG. 1: compares the survival of immunodeficient mice with acute genital HSV-2 infection after topical treatment either with the humanized monoclonal antibody hu2c or acyclovir. Female mice (NOD.CB17-Prkdc^scid/NCrHsd) were treated with a long-acting progestin (Depo-Clinovir, Pharmacia) 7 days prior to viral challenge to increase susceptibility to HSV-2 infection and to eliminate differences caused by the estrous cycle. Anesthetized mice were vaginally challenged with a lethal dose of 5×10^5 PFU of HSV-2 G (20 μl). Mice displaying visible infection (perineal hair loss, reddening, swelling) were treated one day after viral challenge (A) once with 40 μl hu2c (5 mg/ml) (●) or 40 μl control IgG (5 mg/ml) (□) or (B) twice daily for 4 days with 40 μl ACV (25 mg/ml) (Δ) or 40 μl PBS (x). Drug solutions or PBS were applied topically to the outer genital epithelium. Mice were monitored for 36 days after viral inoculation. Mice displaying sever systemic signs and/or severe lesions/zoster were killed. Surviving mice were sacrificed at day 36. Test groups contained eight animals each, control groups contained five animals each. Kaplan-Meier survival curves were analyzed by log-rank (Mantel-Cox) test. Two-tailed significance tests were used to compare the significance level between two groups. All protocols were approved by the Animal Care and Use Committee.
Mice displaying visible infection (perineal hair loss, reddening, swelling) one day after intravaginal challenge with a lethal dose of 5×10^5 PFU of HSV-2 G (20 μl) were treated (A & C) twice daily for 4 days with (A) 40 μl PBS or (C) 40 μl ACV (25 mg/ml), or treated (B & D) once at 24 h post infection with (B) 40 μl hu2c (5 mg/ml) or (D) 40 μl control IgG (5 mg/ml). Drug solutions or PBS were applied topically to the outer genital epithelium.
Infected animals were observed daily and their clinical status was scored as follows: 0, lack of symptoms, no lesions; 1-2, redeness and/or swelling (erosion); 3, localized lesion <1 mm; 4-5, localized lesion 2-3 mm; 6-7 localized lesion 4-5 mm; 8-9, severe hyperemia, destruction of the epithelium and stroma with necrosis; 10, systemic signs, death. Animals with grading >8 were killed to prevent undue suffering. Test groups contained eight animals each, control groups contained five animals each. Arrows indicate time points of treatment.
• The ability of the humanized monoclonal antibody hu2c to alter the clinical course of acute genital HSV-2 infection in immunodeficient mice following a single topical treatment with 200 μg mAb hu2c (5 mg/ml) was investigated. To infect 100% of mice as assessed by visible lesions and culture of vaginal lavage, a viral inoculum of 5×10^5 PFU of HSV-2 G was delivered to the vagina of anesthetized mice. • Although acute HSV-1 or HSV-2 infections result in a fatal outcome in 100% of mice with severe combined immunodeficiency when compared to 70-90% mortality in immunocompetent mice, the immunodeficient model has nevertheless been chosen to discriminate a possible clinical efficacy of the therapy from an elimination of the viral infection due to immune effector cells of the mouse (Minagawa et al., Arch Virol 103, 73-82 (1988); Nagafuchi et al., J Gen Virol 44, 715-723 (1979)). Within genital mucosa the expansion rates of HSV-2 are extremely rapid. At 24 h after viral challenge infected mice received topically at the infected area either twice per day for 4 days 1 mg acyclovir (ACV) (25 mg/ml) or 40 μl buffer (PBS) or a single treatment of 200 μg mAb hu2c (5 mg/ml) or 200 μg control mAb (5 mg/ml). Clinical efficacy of the HSV-specific mAb was compared to the irrelevant mAb (isotypcontrol), ACV and PBS treatment by means of Kaplan-Meier survival curves and daily assessment of the clinical status of the mucous membranes of the genital and anal area. […]

In assay [2] the test system is oral herpes infection (HSV-1 or HSV-2, type not analyzed). The assay can be described thus: Topical application of humanized anti-HSV antibody in volunteers with acute recurrence of oral herpes (cold sores). In kind it is in vivo, human. As for the experimental part:
1.2 Trial Description • Between 2010-2013, twelve healthy 30-59 year old volunteers (7 female, 5 male) with an acute recurrence of oral herpes infection (cold sores) were treated. Volunteers presented themselves when the onset of initial HSV symptoms (itching of the lips, burning or tingling near the lips or mouth area) occurred or had progressed to visible skin disorders on the outer lips. […] However, sometimes HSV-2 is spread to the mouth during oral sex, causing oral herpes. The type of HSV infection (HSV-1 or HSV-2) was not analyzed. • The antibody was packaged as sterile solutions either in PBS or PBS/ash créme (1:1) at concentrations of 0.7-1 mg/ml. Participants applied approx. 10 μl of the antibody topically once, once per day for two days or for a total of three times maximum.
2. Results • ZOVIRAX Cream had been evaluated in 2 double-blind, randomized, placebo (vehicle)-controlled trials (see Zovirax N-. Zovirax Prescribing Information. http://wwwaccessdatafdagov/drugsatfda_docs/label/2002/21478_zovirax_Ib|pdf#page=1&zoom=auto,0,792). • In the Zovirax studies, subjects were instructed to initiate treatment within 1 hour of noticing signs or symptoms and continue treatment for 4 days, with application of study medication 5 times per day. […] At time of treatment several small blisters were visible. For the antibody treated HSV infection a quick recovery was observed.

Setting [3] is: 72 h after commencement of ACV treatment.
[4] abbreviates: one volunteer, upper lip, antibody three times.

With `Nc1nc(=O)c2ncn(COCCO)c2[nH]1` [ACV, 2-Amino-9-(2-hydroxyethoxymethyl)-3H-purin-6-on], the “reduction of episode duration compared with placebo” value in assay [1] is recorded as 0.5 days. Further, the “mean duration of the recurrent herpes labialis episode” value in assay [1] (placebo 5 days) was 4.5 days. Also, in the assay on HSV-2 G, the “mice with acute genital HSV-2 infection / local genital symptoms resolved at 48 h (number)” value is given as 1 out of 8, the “mice with acute genital HSV-2 infection / local genital symptoms resolved at 48 h (percent)” value is recorded as 13% and the “mice in which HSV-2 lethal encephalitis was prevented” value is listed as 1 out of 8. In the assay with HSV-2 G (setting [3]), the “mice with no local signs at 72 h (number)” value is recorded as 5 out of 8 and the “mice with no local signs at 72 h (percent)” value was 63%.

B1: mAb hu2c: humanized derivative of murine mAb 2c recognizing glycoprotein B of HSV-1/2; CDRs grafted into DP28/DPK13, human γ1 and κ constant chains (antibody, V domains shown)
VH: QVTLKESGPALVKPTQTLTLTCTFSGFSLSTSGMSVGWIRQPPGKALEWLAHIWWNNDKYYKPALKSRLTISKDTSKNQVVLTMTNMDPVDTATYYCARIYYGYRPYAMDYWGQGTLVTVSS
VL: DIVMTQTPLSLPVTPGEPASISCRSSQSIVHSNGNTYLEWYLQKPGQSPQLLIYKVSNRFSGVPDRFSGSGSGTDFTLKISRVEAEDVGVYYCFQGSHVPWSFGQGTKVEIKR
modifications: VH of the humanized mAb hu2c antibody; VL of the humanized mAb hu2c antibody
notes: humanized derivative of murine mAb 2c recognizing glycoprotein B of HSV-1/2; CDRs grafted into DP28/DPK13, human γ1 and κ constant chains
As for B1, the “spread of the infected area upon treatment” value in assay [2] (all participants) is “did not spread”. Moreover, in assay [2] (all participants, approx. 10 μl of 0.7-1 mg/ml, one to three applications), the “fast symptom and pain relief after application” value is at most 24 h. Also, in assay [2] (human, in vivo), the “overall rates of clinical reactivation (participants' impression)” value is “tend to be reduced”. Besides, the occurrence of lesions result in assay [2] (one volunteer, upper lip) is listed as “no lesions occurred”. In assay [2] (setting [4]), the “time to disappearance of blisters” value is at most 24 h and the “time until swelling subsided” value is reported as at most 48 h. For the same molecule, in assay [2] (participants' report), the “healing when treatment started at stage of visible external herpetic lesions” value is “rapid healing and disappearance of crusted areas”. For the same molecule, the “course of active blisters” value in assay [2] (participants' report or one volunteer with upper lip (antibody) and lower lip (Zovirax)) is “regressed and did not turn into weeping blisters”. Moreover, the “time to elimination of the infection” value in assay [2] (topical administration, acute infection of the tissue of the lips) is at most 24 h. In the assay on HSV-2 G, the “mice with acute genital HSV-2 infection / local genital symptoms resolved at 48 h (number)” value is 7 out of 8, the “mice with acute genital HSV-2 infection / local genital symptoms resolved at 48 h (percent)” value was found to be 88% and the “mice in which HSV-2 lethal encephalitis was prevented” value was 1 out of 8.
